Measured values from publication PMC9427789 (2022).
Substitutions are numbered along the chain they refer to. In names and notes the source's numbering stands.

B1: Burosumab (wild type) (antibody, V domains shown)
VH: QVQLVQSGAEVKKPGASVKVSCKASGYTFTNHYMHWVRQAPGQGLEWMGIINPISGSTSNAQKFQGRVTMTRDTSTSTVYMELSSLRSEDTAVYYCARDIVDAFDFWGQGTMVTVSS
VL: AIQLTQSPSSLSASVGDRVTITCRASQGISSALVWYQQKPGKAPKLLIYDASSLESGVPSRFSGSGSGTDFTLTISSLQPEDFATYYCQQFNDYFTFGPGTKVDIK
B2: Burosumab VL:A32S (antibody, V domains shown)
VH: B1 VH
VL: B1 VL with A32S
B3: Burosumab variant with combined VH:V97A and VL:A32S mutations (antibody, V domains shown)
VH: B1 VH with V101A
VL: B1 VL with A32S
B4: Burosumab VH:V97A (antibody, V domains shown)
VH: B1 VH with V101A
VL: B1 VL

Target: T1, His-SUMO-FGF23 (N-terminal domain of human FGF23, wild type) (human, UniProt Q9GZV9 25-204)
T1 chain: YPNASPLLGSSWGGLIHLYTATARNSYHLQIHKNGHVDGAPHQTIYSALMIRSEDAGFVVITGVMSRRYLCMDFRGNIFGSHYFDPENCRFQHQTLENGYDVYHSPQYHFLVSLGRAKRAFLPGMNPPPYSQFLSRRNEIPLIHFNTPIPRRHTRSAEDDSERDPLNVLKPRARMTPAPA
Assay: ELISA

| Binder | Kd [pM] |
| --- | --- |
| B1 | 770 |
| B2 | 480 |
| B3 | 210 |
| B4 | 650 |
